Experimental data reported in patent publication US20150239968A1.
pKd: −log10 of the molar value.

Legend:
[1] = target: recombinant mature human GDF-15 protein (as expressed in Baculovirus-transfected insect cells) (human) (UniProt Q99988); assay: SPR (Biorad ProteOn XPR36, GLC chip), KD=koff/kon, GDF-15 from insect cells immobilized
[2] = target: recombinant mature human GDF-15 protein derived from expression in E. coli (human) (UniProt Q99988); assay: SPR (Biorad ProteOn XPR36, GLC chip), GDF-15 from E. coli immobilized, antibody as analyte
[3] = target: GDF-15 produced by the prostate cancer cell line LnCap (UniProt Q99988); assay: cell-based or functional assay
[4] = target: recombinant mature human GDF-15 protein (as expressed in Baculovirus-transfected insect cells) (human) (UniProt Q99988); assay: SPR (Biorad ProteOn XPR36, GLC chip), GDF-15 from insect cells immobilized, antibody as analyte, 1:1 Langmuir, 25° C.

## monoclonal anti-human GDF-15 mAb-B1-23 (antibody)
[1]
  pKd: 9.10
[2]
  deviation of rate constants against GDF-15 derived from insect cells: 45%
  fold difference of affinity values against GDF-15 derived from insect cells: < 2 fold
[3]
  proliferation of LnCap cells (Alamar Blue assay) after 72 hrs: 30%
[4]
  koff: 0.00043 s⁻¹
  kon: 540000 M⁻¹ s⁻¹
